Article PMC3641136

Molecular target: calnexin (CNX), endogenous in COS7 cells
Test: sequential co-immunoprecipitation (CNX then GlyT2 antibodies), densitometry of fluorograms
Conditions: 15 min [35S]methionine/cysteine pulse, 30 min chase, n = 3, parent: est. 100, read off a plot

| Molecule | percent of parent |
| --- | --- |
| neuronal glycine transporter 2 (GlyT2), wild type (from UniProt P58295) N3 | 72 % of wtGlyT2 |
| neuronal glycine transporter 2 (GlyT2), wild type (from UniProt P58295) N13 | 85 % of wtGlyT2 |
| neuronal glycine transporter 2 (GlyT2), wild type (from UniProt P58295) N23 | 62 % of wtGlyT2 |
| neuronal glycine transporter 2 (GlyT2), wild type (from UniProt P58295) N1 | 69 % of wtGlyT2 |
| neuronal glycine transporter 2 (GlyT2), wild type (from UniProt P58295) N366D | 51 % of wtGlyT2 |

Further lines, results first:

| percent of parent | Molecule |
| --- | --- |
| 48 % of wtGlyT2 | neuronal glycine transporter 2 (GlyT2), wild type (from UniProt P58295) N234 |
| 62 % of wtGlyT2 | neuronal glycine transporter 2 (GlyT2), wild type (from UniProt P58295) N2 |
| 74 % of wtGlyT2 | neuronal glycine transporter 2 (GlyT2), wild type (from UniProt P58295) N345D; N355D; N360D; N366D |
| 35 % of wtGlyT2 | neuronal glycine transporter 2 (GlyT2), wild type (from UniProt P58295) N123 |

Molecular target: calnexin (CNX), endogenous in COS7 cells (African green monkey (endogenous in COS7))
Test: co-IP; COS7 cells pulse-labeled 15 min with [35S]methionine/cysteine and chased; sequential immunoprecipitation with anti-CNX, then anti-GlyT2 antibodies (1% CHAPS); SDS-PAGE, fluorography, densitometry; also after treatment of cells with tunicamycin, castanospermine, deoxynojirimycin, deoxymannojirimycin, kifunensin, or at 45°C
Conditions: not given

| half-life of the complex (pulse-chase) | Molecule |
| --- | --- |
| 1 h | neuronal glycine transporter 2 (GlyT2), wild type (natural protein, N-glycans on asparagines 345, 355, 360 and 366; the CNX-bound form is the 75 kDa under-glycosylated, EndoH-sensitive precursor) MDCSAPKEMNKPPTNILEATVPGHRDSPRAPRTSPEQDLPAAAPAAAVQPPRVPRSASTGAQTFQSADARACEAQRPGVGFCKLSSPQAQATSAALRDLSEGHSAQANPPSGAAGAGNALHCKIPALRGPEEDENVSVGKGTLEHNNTPAVGWVNMSQSTVVLGTDGIASVLPGSVATTTIPEDEQGDENKARGNWSSKLDFILSMVGYAVGLGNVWRFPYLAFQNGGGAFLIPYLMMLALAGLPIFFLEVSLGQFASQGPVSVWKAIPALQGCGIAMLIISVLIAIYYNVIICYTLFYLFASFVSVLPWGSCNNPWNTPECKDKTKLLLDSCVIGDHPKIQIKNSTFCMTAYPNLTMVNFTSQANKTFVSGSEEYFKYFVLKISAGIEYPGEIRWPLAFCLFLAWVIVYASLAKGIKTSGKVVYFTATFPYVVLVILLIRGVTLPGAGAGIWYFITPKWEKLTDATVWKDAATQIFFSLSAAWGGLITLSSYNKFHNNCYRDTLIVTCTNSATSIFAGFVIFSVIGFMANERKVNIENVADQGPGIAFVVYPEALTRLPLSPFWAIIFFLMLLTLGLDTMFATIETIVTSISDEFPKYLRTHKPVFTLGCCICFFIMGFPMITQGGIYMFQLVDTYAASYALVIIAIFELVGISYVYGLQRFCEDIEMMIGFQPNIFWKVCWAFVTPTILTFILCFSFYQWEPMTYGSYRYPNWSMVLGWLMLACSVIWIPIMFVIKMYLAPGRFIERLKLVCSPQPDWGPFLAQHRGERYKNMIDPLGTSSLGLKLPVKDLELGTQC |
